The source of these data is publication PMC4877171 (Chemical research in toxicology, 2015).

What all share (test): cross-linking
Data set [1] concerns the target Human recombinant TrxR1 mutant enzyme (Sec498Cys) (human) (UniProt Q16881).
Data set [2] addresses T1, purified rat cytosolic TrxR (rat, UniProt O89049 1-499, selenocysteine at 498).
T1 sequence (looked up): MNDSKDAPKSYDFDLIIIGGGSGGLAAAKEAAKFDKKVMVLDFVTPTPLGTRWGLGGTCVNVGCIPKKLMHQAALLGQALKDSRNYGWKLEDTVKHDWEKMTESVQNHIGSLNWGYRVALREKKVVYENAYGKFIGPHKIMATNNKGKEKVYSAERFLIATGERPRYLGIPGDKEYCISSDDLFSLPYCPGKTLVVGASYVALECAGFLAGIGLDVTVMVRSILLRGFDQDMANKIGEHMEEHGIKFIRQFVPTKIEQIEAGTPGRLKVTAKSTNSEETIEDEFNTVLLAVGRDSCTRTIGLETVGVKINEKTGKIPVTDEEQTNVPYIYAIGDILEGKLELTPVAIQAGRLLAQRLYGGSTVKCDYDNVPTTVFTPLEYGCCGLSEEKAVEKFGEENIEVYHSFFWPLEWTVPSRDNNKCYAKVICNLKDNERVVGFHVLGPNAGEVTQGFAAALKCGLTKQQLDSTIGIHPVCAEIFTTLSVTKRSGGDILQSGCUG

Data set [3] deals with the molecule itself.

The stoichiometry N is a count of units in the complex or per binding partner. “Human recombinant TrxR1 mutant enzyme (Sec498Cys) (from UniProt Q16881-5 1-499)”: the stoichiometry N in data set [1] came to 2.

B1: recombinant human Trx1 (natural protein)
chain: MVKQIESKTAFQEALDAAGDKLVVVDFSATWCGPCKMIKPFFHSLSEKYSNVIFLEVDVDDCQDVASECEVKCMPTFQFFKKGQKVGEFSGANKEKLEATINELV
Regarding B1, in data set [2], the binding result is listed as “binds”. In addition, in data set [3], the “stoichiometry N” value worked out at 2.
